The values that follow come from article PMC11551746, “The Swi5–Sfr1 complex regulates Dmc1- and Rad51-driven DNA strand exchange proceeding through two distinct three-stranded intermediates by different mechanisms” (Nucleic Acids Research, 2024).

In data set [1] the target is T1, Dmc1 (Schizosaccharomyces pombe, UniProt O42634).
T1 construct: purified as described previously; filament on ssDNA
T1 sequence (O42634 1-332): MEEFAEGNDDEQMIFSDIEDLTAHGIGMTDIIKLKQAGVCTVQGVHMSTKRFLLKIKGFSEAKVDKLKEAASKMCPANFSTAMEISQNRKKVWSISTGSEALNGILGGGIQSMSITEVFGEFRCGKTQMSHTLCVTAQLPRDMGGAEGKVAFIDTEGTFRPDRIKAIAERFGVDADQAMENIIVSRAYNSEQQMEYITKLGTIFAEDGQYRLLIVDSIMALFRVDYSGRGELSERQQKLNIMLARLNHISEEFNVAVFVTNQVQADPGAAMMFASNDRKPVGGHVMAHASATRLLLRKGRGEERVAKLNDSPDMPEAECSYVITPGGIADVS
Put plainly: FRET real-time DNA strand pairing and displacement. It is filed as biochemical. As to conditions: 1 mM ATP, 5 mM MgCl2, 25 mM KCl, pH 7.5, 30 °C, 83-mer ssDNA, 40-83 bp dsDNA; compared with ADP.

Data set [2] deals with T2, Rad51 (Schizosaccharomyces pombe, UniProt P36601).
T2 construct: purified as described previously; filament on ssDNA
T2 sequence (P36601 1-365): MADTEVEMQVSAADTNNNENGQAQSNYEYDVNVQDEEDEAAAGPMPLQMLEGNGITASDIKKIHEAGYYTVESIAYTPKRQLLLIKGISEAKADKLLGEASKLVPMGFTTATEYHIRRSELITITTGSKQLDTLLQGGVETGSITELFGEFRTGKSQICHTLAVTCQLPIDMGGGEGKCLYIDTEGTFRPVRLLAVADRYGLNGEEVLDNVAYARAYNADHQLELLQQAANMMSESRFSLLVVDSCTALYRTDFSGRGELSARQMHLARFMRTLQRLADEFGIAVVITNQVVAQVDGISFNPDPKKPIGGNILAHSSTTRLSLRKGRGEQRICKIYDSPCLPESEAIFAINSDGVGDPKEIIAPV
Briefly: fluorescence anisotropy of Rad51-ssDNA filament. The conditions noted are these: 1 mM AMP-PNP, 3 mM MgCl2, 100 mM KCl, pH 7.5, 25 °C, TAMRA-oligo dT; compared with ATP. The class given is binding. A general note: In fluorescence polarisation assays a small probe gives low polarisation when free and higher when bound to something large.

Data set [3] concerns the target T1, Dmc1. Briefly: fluorescence anisotropy of Dmc1-ssDNA filament; FRET strand exchange. The class given is binding. As to conditions: 1 mM AMP-PNP, 3 mM MgCl2, 100 mM KCl, pH 7.5, 25 °C, TAMRA-oligo dT (anisotropy); compared with ATP.
Data set [4] addresses T3, Dmc1 (Schizosaccharomyces pombe? (fission …, UniProt O42634 1-332)).
T3 sequence: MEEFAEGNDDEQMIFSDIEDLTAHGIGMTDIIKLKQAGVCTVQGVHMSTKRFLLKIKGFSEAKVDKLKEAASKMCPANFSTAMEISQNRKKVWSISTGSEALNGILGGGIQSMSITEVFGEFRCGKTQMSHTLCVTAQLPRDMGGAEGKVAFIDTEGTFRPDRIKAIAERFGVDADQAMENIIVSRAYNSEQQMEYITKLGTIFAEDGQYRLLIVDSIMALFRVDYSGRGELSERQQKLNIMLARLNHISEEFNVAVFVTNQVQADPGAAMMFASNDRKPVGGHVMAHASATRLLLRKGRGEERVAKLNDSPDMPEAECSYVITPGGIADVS
Briefly: fluorescence anisotropy; 1 mM ADP, Mg2+; Hill fit; 30 mM HEPES-KOH pH 7.5, 100 mM KCl, 3 mM MgCl2 or CaCl2, 1 mM DTT, 5% glycerol, 1 mM adenine nucleotide, 3 uM (nt) TAMRA-dT72, 25 C. The conditions noted are these: protein: recombinant; label: 5' TAMRA; single-stranded.

Data set [5] deals with T3, Dmc1. Put plainly: fluorescence anisotropy; 1 mM AMP-PNP, Mg2+; Hill fit; 30 mM HEPES-KOH pH 7.5, 100 mM KCl, 3 mM MgCl2 or CaCl2, 1 mM DTT, 5% glycerol, 1 mM adenine nucleotide, 3 uM (nt) TAMRA-dT72, 25 C. The conditions noted are these: protein: recombinant; label: 5' TAMRA; single-stranded.
Data set [6] addresses T4, Rad51 (Schizosaccharomyces pombe? (fission …, UniProt P36601 1-365)).
T4 sequence: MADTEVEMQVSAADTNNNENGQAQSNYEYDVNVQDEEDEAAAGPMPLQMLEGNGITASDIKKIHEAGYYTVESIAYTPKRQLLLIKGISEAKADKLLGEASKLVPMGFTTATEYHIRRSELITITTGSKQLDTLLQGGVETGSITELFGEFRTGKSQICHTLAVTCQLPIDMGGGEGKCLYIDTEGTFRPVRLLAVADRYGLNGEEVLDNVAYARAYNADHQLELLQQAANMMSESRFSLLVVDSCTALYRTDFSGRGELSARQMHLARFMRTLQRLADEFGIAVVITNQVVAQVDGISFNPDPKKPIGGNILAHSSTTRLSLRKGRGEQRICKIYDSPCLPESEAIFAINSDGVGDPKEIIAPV
Put plainly: fluorescence anisotropy; 1 mM ATP, 3 mM Mg2+; Hill fit; 30 mM HEPES-KOH pH 7.5, 100 mM KCl, 3 mM MgCl2 or CaCl2, 1 mM DTT, 5% glycerol, 1 mM adenine nucleotide, 3 uM (nt) TAMRA-dT72, 25 C. As to conditions: protein: recombinant; label: 5' TAMRA; single-stranded.

Data set [7] has as its target T3, Dmc1. The data set is described as above. The conditions noted are these: protein: recombinant; label: 5' TAMRA; single-stranded.
The target of data set [8] is T3, Dmc1. Briefly: fluorescence anisotropy; 3 mM Ca2+ in place of Mg2+, ATP?; Hill fit; 30 mM HEPES-KOH pH 7.5, 100 mM KCl, 3 mM MgCl2 or CaCl2, 1 mM DTT, 5% glycerol, 1 mM adenine nucleotide, 3 uM (nt) TAMRA-dT72, 25 C. As to conditions: protein: recombinant; label: 5' TAMRA; single-stranded.
Data set [9] has as its target T3, Dmc1. Briefly: fluorescence anisotropy; ssDNA preincubated with Swi5-Sfr1 (0.1 uM or more), ATP?, Mg2+; Hill fit; 30 mM HEPES-KOH pH 7.5, 100 mM KCl, 3 mM MgCl2 or CaCl2, 1 mM DTT, 5% glycerol, 1 mM adenine nucleotide, 3 uM (nt) TAMRA-dT72, 25 C. As to conditions: protein: recombinant; label: 5' TAMRA; single-stranded.

As to `Nc1ncnc2c1ncn2[C@@H]1O[C@H](COP(=O)(O)OP(=O)(O)OP(=O)(O)O)[C@@H](O)[C@H]1O` [ATP], the “FRET real-time DNA strand pairing and displacement” value at Dmc1 [1] is recorded as “the ATP-bound form of Dmc1 is sufficient for three-stranded intermediate formation”.
As for `Nc1ncnc2c1ncn2[C@@H]1O[C@H](COP(=O)(O)OP(=O)(O)NP(=O)(O)O)[C@@H](O)[C@H]1O` [AMP–PNP], the “fluorescence anisotropy of Rad51-ssDNA filament” value at Rad51 [2] was “AMP–PNP significantly stabilized the Rad51 filament”. Also, on Dmc1 [3], the “fluorescence anisotropy of Dmc1-ssDNA filament; FRET strand exchange” value is listed as “AMP–PNP strongly stabilizes the Dmc1–ssDNA filament”.

B1: [TAMRA]dT72 (ssDNA)
DNA: TTTTTTTTTTTTTTTTTTTTTTTTTTTTTTTTTTTTTTTTTTTTTTTTTTTTTTTTTTTTTTTTTTTTTTTT
As a reminder, the Kd is the free concentration of one partner at which half of the binding sites on the other are occupied at equilibrium, for simple one-to-one binding. For the molecule B1, the dissociation constant Kd with Dmc1 [4] is 1970 nM; in the data set with Dmc1 [5] it was 547 nM; with Rad51 [6] it was 308 nM; with Dmc1 [7] it was 1220 nM; in the data set with Dmc1 [8] it was 227 nM; with Dmc1 [9] it was about 510 nM.
